Molecular target: 329 SOSIP.v8.2 Env trimer (HIV-1 clade C)
Experiment: native gel or EMSA; BN-PAGE, NuPAGE 4–12% Bis-Tris gels; 2 µg SOSIP trimers or equimolar SOSIP–ferritin (2.5 µg) and SOSIP-I53-50 (3.2 µg) NPs

For “329 SOSIP.v8.2 Env trimer (domain or fragment)”, the stoichiometry N was 3.

Source: paper PMC11860714
